# Laboratory results taken from patent US20150044209A1.
# Legend:
# human insulin (human) [1] = molecular target: human insulin (human) (UniProt P01308); assay: SPR (Biacore 3000), multi-cycle, insulin titrated over amine-coupled Trap, steady-state affinity model, n=4; insulin titrated over immobilized Trap B; steady-state affinity model; n = 4
# human IGF-2 (human) = human IGF-2 (human) (UniProt P01344); assay: SPR, multi-cycle, Trap flowed over amine-coupled ligand, 1:1 kinetic model, n=4
# mouse IGF-1 (mouse) = mouse IGF-1 (mouse) (UniProt P05017); assay: as above
# human insulin (human) [2] = molecular target: human insulin (human) (UniProt P01308); assay: SPR (Biacore 3000), multi-cycle, insulin titrated over amine-coupled Trap, steady-state affinity model, n=4
# [3] = molecular target: ligand-immobilized surfaces (hIGF-I, mIGF-I and hIGF-II); assay: SPR, multi-cycle, Trap flowed over ligand-immobilized surfaces; ligand not named
# Chain of human insulin (human) (P01308 25-54 limits assumed, chain 1 of 2): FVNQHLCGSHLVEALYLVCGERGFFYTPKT
# Chain of human insulin (human) (P01308 90-110 limits assumed, chain 2 of 2): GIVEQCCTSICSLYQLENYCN
# Chain of human IGF-2 (human) (P01344 25-91 limits assumed): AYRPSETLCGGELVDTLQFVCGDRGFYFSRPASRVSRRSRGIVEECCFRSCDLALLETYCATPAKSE
# Chain of mouse IGF-1 (mouse) (P05017 49-118 limits assumed): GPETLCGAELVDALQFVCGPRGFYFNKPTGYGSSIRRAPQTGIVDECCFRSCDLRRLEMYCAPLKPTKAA
substance,measurement,setting,value
Trap B: His-tagged h-sIGF1R purified from 293 cells (from UniProt P08069 31-935) (receptor),Kd,human insulin (human) [1],10 µM
"Trap D: h-sIGF1R, purified from CHO cells by calcium hydroxyapatite (CHT) column followed by gel filtration (GF) (from UniProt P08069 31-935) (receptor)",Kd,human IGF-2 (human),16 nM
same,Kd,mouse IGF-1 (mouse),10 nM
same,Kd,human insulin (human) [2],16 µM
"Trap F: h-sIGF1R-Fc, purified from CHO cells using protein A, pH 4.0 elution (Fc fusion)",koff,[3],0.00043 s⁻¹
"Trap G: h-sIGF1R-Fc, purified from CHO cells using protein A, pH 3.5 elution (Fc fusion)",koff,[3],0.00015 s⁻¹
